What was measured:
[1] = target: uncleaved CZA97.012 gp140 (HIV-1 subtype C, CZA97.012 | not stated); test: SEC
[2] = target: BG505 SOSIP.664 gp140 trimer (HIV-1 subtype A transmitted/founder virus BG505); test: native gel or EMSA; BN-PAGE, Coomassie blue staining, of 2G12-affinity-purified Env proteins and of SEC-purified trimers from stable cell lines and transient transfection

Substance	stoichiometry N [1]	stoichiometry N [2]
uncleaved CZA97.012 gp140	3	–
BG505 SOSIP.664 gp140 trimer (complex)	–	3

From article PMC4032163
